Numbering of substitutions follows the chain as printed. Numbers in names are those of the source. Entries after “also recorded” stand apart in the source; their conditions may differ.
B1: D261N (protein)
chain: MKVSALKEKVSALKEKVSALKEKVSALKEKVSALKEGSGGGSGGGSGGGSNSIALKNNTLWTGPKPEANCIIEYGKQNPDSKLTLILVKNGGIVNGYVTLMGASDYVNTLFKNKNVSINVELYFDATGHILPDSSSLKTDLELKYKQTADFSARGFMPSTTAYPFVLPNAGTHNENYIFGQCYYKASNGALFPLEVTVMLNKRLPDSRTSYVMTFLWSLNAGLAPETTQATLITSPFTFSYIREDD
B2: JO-1: dimeric protein that contains the wild-type Ad3 fiber knob and a self-dimerization domain (SEQ ID NO:27) (protein, listed as Homo sapiens)
chain: B1 chain with N188D
modifications: dimer
B3: JO-4 (protein)
chain: B1 chain with Y177F, N188D

Experiments:
[1] = system: polarized colon cancer T84 cells; test: Transepithelial electrical resistance (TEER) on polarized T84 cells; format: cell-based; settings: for Effect on the TEER: added for 1 hour to the apical side of transwell cultures
Method: FIG. 5A-5B. Correlation of reduced DSG2 binding with the ability to open epithelial junctions. FIG. 5A) Transepithelial electrical resistance (TEER) measured on polarized colon cancer T84 cells. Cells were cultured in transwell chambers until the TEER was constant, i.e. tight junctions had formed. A total of 5 μg of dimeric Ad3 fiber knobs in PBS was then added for 1 hour to the apical chamber. TEER was measured at the indicated time points. N=6. For time points 1.5 and 4 hours the difference between JO-1 vs D261N and N186D was significant (p<0.01). The arrows indicate the addition and removal of Ad3 fiber knobs. FIG. 5B) Enhancement of irinotecan therapy. A total of 4×10^6 A549 cells were injected subcutaneously into CB17-SCID/beige mice. Once the tumor reached a volume of ˜100 mm^3 (day 15 after implantation), the mice were injected intravenously with 2 mg/kg JO-1, E299V, N186D, or PBS, followed by an intravenous injection of irinotecan (37.5 mg/kg) one hour later. The treatment was repeated on day 25. N=5. […] The difference between “irinotecan” vs “JO-1+irinotecan” was significant (p<0.01) from day 20 on.
FIG. 9A1-9C. Analysis of dimeric Ad3 fiber knob mutants with increased affinity to DSG2. FIG. 9A1-9A2) Competition of Ad3-GFP virus infection on HeLa cells with dimeric affinity-enhanced mutant Y250F and JO-1 (dimeric wt Ad3 fiber knob). The experimental setting is as described for FIG. 3C. FIG. 9A1) percentage of GFP positive cells. FIG. 9A2) mean fluorescence intensity. N=3. The standard deviation was less than 10%. FIG. 9B1-9B2) Competition of Ad3-GFP virus infection on HeLa cells by Ad3 knob mutants with enhanced DSG2 binding but without dimerization domain. 1.5×10^5 HeLa cells were seeded into 24 well plates. Cells were incubated with the Ad3 knob mutants at the increasing concentrations for one hour at room temperature. 100 pfu/cell of Ad3GFP virus were then added and GFP expression was analyzed 18 hours later. FIG. 9B1) % of GFP+cells; FIG. 9B2) MFI. FIG. 9C) TEER on colon cancer T84 cells. The experimental setting was the same as for FIG. 5A. The TEER at 4 hours is shown. N=3.
Permeability assay. A total of 5×10^5 T84 cells were seeded in 12 mm transwell inserts (PET membrane, with 0.4 μm pore size (Corning, NY) and cultured for >14 days until transepithelial electrical resistance (TEER) was stable. Culture medium was changed every 2-3 days. The cells were exposed to DSG2 ligands (20 μg/ml) in adhesion medium (DMEM, 1% FBS, 2 mM MgCl2, 20 mM HEPES) for 15 min at room temperature and TEER was measured and calculated as described elsewhere (39).

[2] = system: TC1-hDSG2 tumors; test: PLD therapy with repeated injection in immunocompetent mice with TC1-hDSG2 tumors; format: in vivo, hDSG2 transgenic mice; settings: 2 mg/kg i.v. one hour before PLD 1.5 mg/kg; 3rd and 4th cycle, serum antibodies detectable
Method: FIG. 11A-11C. Pharmacokinetics, toxicity, and immunogenicity of JO-4. FIG. 11A) Serum clearance of JO-1 and JO-4. hDSG2 transgenic mice with subcutaneous TC1-hDSG2 tumors (˜600 mm^3) were intravenously injected with JO-1 or JO-4 (2 mg/kg) and serum samples were analyzed for by ELISA. N=3. Note that the y-axis has a log scale. FIG. 11B1) Lymphocyte and FIG. 11B2) platelet counts in hDSG2/TC1-hDSG2 transgenic mice after JO-1 or JO-4 injection. N=3. FIG. 11C) Therapy studies in immunocompetent hDSG2 transgenic mice with TC1-hDSG2 tumors. When tumors reached a volume of ˜80 mm^3, JO-1 or JO-4 (2 mg/kg) or PBS was injected intravenously followed one hour later by PLD/Doxil (i.v. 1.5 mg/kg). Treatment was repeated as indicated by arrows. Tumors were then allowed to re-grow for about two weeks. From day 15 on serum anti-JO-1/J)—4 antibodies were detectable by ELISA. Two more treatment cycles were performed at day 28 and day 35. […] The difference between JO-1/PLD vs JO-4/PLD is significant from day 31 on. N=10.
A549, MDA-MB-231, and ovc316 xenograft tumors were established by injection of the corresponding tumor cells into the mammary fat pad (1:1 with Matrigel) of CB17 mice. […] Tumor volumes were measured three times a week. […]
JO-1 and JO-4 are virus-derived proteins and immunogenic. In immunocompetent mice, serum IgG antibodies against these proteins can be detected by ELISA two weeks after injection (5). […]

Row | Molecule | Effect on the TEER [1] | Enhancing effect on PLD therapy after repeated treatment cycles [2] | TEER compared to JO-1 ([1]; dimeric affinity-enhanced mutants, TEER at 4 hours)
1 | B1 | no effect | – | –
2 | B2 | rapid decrease in the TEER | enhancing effect; also recorded: continued to be effective | –
3 | B3 | – | significantly stronger; also recorded: continued to be effective | significantly higher
